Reference: patent US20110091994A1, “Methods for Screening Compounds for Treating and/or Preventing an Hepatitis C Virus Infection” (priority 2008, published 2011)
Read-outs that look alike come from different tables or passages of the source.

B1: SIAH1 (protein, UniProt Q8IUQ4 1-282, looked up)
E3 ubiquitin-protein ligase …: MSRQTATALPTGTSKCPPSQRVPALTGTTASNNDLASLFECPVCFDYVLPPILQCQSGHLVCSNCRPKLTCCPTCRGPLGSIRNLAMEKVANSVLFPCKYASSGCEITLPHTEKADHEELCEFRPYSCPCPGASCKWQGSLDAVMPHLMHQHKSITTLQGEDIVFLATDINLPGAVDWVMMQSCFGFHFMLVLEKQEKYDGHQQFFAIVQLIGTRKQAENFAYRLELNGHRRRLTWEATPRSIHEGIATAIMNSDCLVFDTSIAQLFAENGNLGINVTISMC
B2: SLIT3 (protein, UniProt O75094 34-1523, looked up)
Slit homolog 3 protein: CPTKCTCSAASVDCHGLGLRAVPRGIPRNAERLDLDRNNITRITKMDFAGLKNLRVLHLEDNQVSVIERGAFQDLKQLERLRLNKNKLQVLPELLFQSTPKLTRLDLSENQIQGIPRKAFRGITDVKNLQLDNNHISCIEDGAFRALRDLEILTLNNNNISRILVTSFNHMPKIRTLRLHSNHLYCDCHLAWLSDWLRQRRTVGQFTLCMAPVHLRGFNVADVQKKEYVCPAPHSEPPSCNANSISCPSPCTCSNNIVDCRGKGLMEIPANLPEGIVEIRLEQNSIKAIPAGAFTQYKKLKRIDISKNQISDIAPDAFQGLKSLTSLVLYGNKITEIVKGLFDGLVSLQLLLLNANKINCLRVNTFQDLQNLNLLSLYDNKLQTISKGLFAPLQSIQTLHLAQNPFVCDCHLKWLADYLQDNPIETSGARCSSPRRLANKRISQIKSKKFRCSGSEDYRSRFSSECFMDLVCPEKCRCEGTIVDCSNQKLVRIPSHLPEYVTDLRLNDNEVSVLEATGIFKKLPNLRKINLSNNKIKEVREGAFDGAASVQELMLTGNQLETVHGRVFRGLSGLKTLMLRSNLIGCVSNDTFAGLSSVRLLSLYDNRITTITPGAFTTLVSLSTINLLSNPFNCNCHLAWLGKWLRKRRIVSGNPRCQKPFFLKEIPIQDVAIQDFTCDGNEESSCQLSPRCPEQCTCMETVVRCSNKGLRALPRGMPKDVTELYLEGNHLTAVPRELSALRHLTLIDLSNNSISMLTNYTFSNMSHLSTLILSYNRLRCIPVHAFNGLRSLRVLTLHGNDISSVPEGSFNDLTSLSHLALGTNPLHCDCSLRWLSEWVKAGYKEPGIARCSSPEPMADRLLLTTPTHRFQCKGPVDINIVAKCNACLSSPCKNNGTCTQDPVELYRCACPYSYKGKDCTVPINTCIQNPCQHGGTCHLSDSHKDGFSCSCPLGFEGQRCEINPDDCEDNDCENNATCVDGINNYVCICPPNYTGELCDEVIDHCVPELNLCQHEAKCIPLDKGFSCECVPGYSGKLCETDNDDCVAHKCRHGAQCVDTINGYTCTCPQGFSGPFCEHPPPMVLLQTSPCDQYECQNGAQCIVVQQEPTCRCPPGFAGPRCEKLITVNFVGKDSYVELASAKVRPQANISLQVATDKDNGILLYKGDNDPLALELYQGHVRLVYDSLSSPPTTVYSVETVNDGQFHSVELVTLNQTLNLVVDKGTPKSLGKLQKQPAVGINSPLYLGGIPTSTGLSALRQGTDRPLGGFHGCIHEVRINNELQDFKALPPQSLGVSPGCKSCTVCKHGLCRSVEKDSVVCECRPGWTGPLCDQEARDPCLGHRCHHGKCVATGTSYMCKCAEGYGGDLCDNKNDSANACSAFKCHHGQCHISDQGEPYCLCQPGFSGEHCQQENPCLGQVVREVIRRQKGYASCATASKVPIMECRGGCGPQCCQPTRSKRRKYVFQCTDGSSFVEEVERHLECGCLACS
B3: SLIT2 (protein, UniProt O94813 31-1529, looked up)
Slit homolog 2 protein: QCSCSGSTVDCHGLALRSVPRNIPRNTERLDLNGNNITRITKTDFAGLRHLRVLQLMENKISTIERGAFQDLKELERLRLNRNHLQLFPELLFLGTAKLYRLDLSENQIQAIPRKAFRGAVDIKNLQLDYNQISCIEDGAFRALRDLEVLTLNNNNITRLSVASFNHMPKLRTFRLHSNNLYCDCHLAWLSDWLRQRPRVGLYTQCMGPSHLRGHNVAEVQKREFVCSGHQSFMAPSCSVLHCPAACTCSNNIVDCRGKGLTEIPTNLPETITEIRLEQNTIKVIPPGAFSPYKKLRRIDLSNNQISELAPDAFQGLRSLNSLVLYGNKITELPKSLFEGLFSLQLLLLNANKINCLRVDAFQDLHNLNLLSLYDNKLQTIAKGTFSPLRAIQTMHLAQNPFICDCHLKWLADYLHTNPIETSGARCTSPRRLANKRIGQIKSKKFRCSAKEQYFIPGTEDYRSKLSGDCFADLACPEKCRCEGTTVDCSNQKLNKIPEHIPQYTAELRLNNNEFTVLEATGIFKKLPQLRKINFSNNKITDIEEGAFEGASGVNEILLTSNRLENVQHKMFKGLESLKTLMLRSNRITCVGNDSFIGLSSVRLLSLYDNQITTVAPGAFDTLHSLSTLNLLANPFNCNCYLAWLGEWLRKKRIVTGNPRCQKPYFLKEIPIQDVAIQDFTCDDGNDDNSCSPLSRCPTECTCLDTVVRCSNKGLKVLPKGIPRDVTELYLDGNQFTLVPKELSNYKHLTLIDLSNNRISTLSNQSFSNMTQLLTLILSYNRLRCIPPRTFDGLKSLRLLSLHGNDISVVPEGAFNDLSALSHLAIGANPLYCDCNMQWLSDWVKSEYKEPGIARCAGPGEMADKLLLTTPSKKFTCQGPVDVNILAKCNPCLSNPCKNDGTCNSDPVDFYRCTCPYGFKGQDCDVPIHACISNPCKHGGTCHLKEGEEDGFWCICADGFEGENCEVNVDDCEDNDCENNSTCVDGINNYTCLCPPEYTGELCEEKLDFCAQDLNPCQHDSKCILTPKGFKCDCTPGYVGEHCDIDFDDCQDNKCKNGAHCTDAVNGYTCICPEGYSGLFCEFSPPMVLPRTSPCDNFDCQNGAQCIVRINEPICQCLPGYQGEKCEKLVSVNFINKESYLQIPSAKVRPQTNITLQIATDEDSGILLYKGDKDHIAVELYRGRVRASYDTGSHPASAIYSVETINDGNFHIVELLALDQSLSLSVDGGNPKIITNLSKQSTLNFDSPLYVGGMPGKSNVASLRQAPGQNGTSFHGCIRNLYINSELQDFQKVPMQTGILPGCEPCHKKVCAHGTCQPSSQAGFTCECQEGWMGPLCDQRTNDPCLGNKCVHGTCLPINAFSYSCKCLEGHGGVLCDEEEDLFNPCQAIKCKHGKCRLSGLGQPYCECSSGYTGDSCDREISCRGERIRDYYQKQQGYAACQTTKKVSRLECRGGCAGGQCCGPLRSKRRKYSFECTDGSSFVDEVEKVVKCGCTRCVS
B4: PAK4 (protein, UniProt O96013 1-591, looked up)
Serine/threonine-protein …: MFGKRKKRVEISAPSNFEHRVHTGFDQHEQKFTGLPRQWQSLIEESARRPKPLVDPACITSIQPGAPKTIVRGSKGAKDGALTLLLDEFENMSVTRSNSLRRDSPPPPARARQENGMPEEPATTARGGPGKAGSRGRFAGHSEAGGGSGDRRRAGPEKRPKSSREGSGGPQESSRDKRPLSGPDVGTPQPAGLASGAKLAAGRPFNTYPRADTDHPSRGAQGEPHDVAPNGPSAGGLAIPQSSSSSSRPPTRARGAPSPGVLGPHASEPQLAPPACTPAAPAVPGPPGPRSPQREPQRVSHEQFRAALQLVVDPGDPRSYLDNFIKIGEGSTGIVCIATVRSSGKLVAVKKMDLRKQQRRELLFNEVVIMRDYQHENVVEMYNSYLVGDELWVVMEFLEGGALTDIVTHTRMNEEQIAAVCLAVLQALSVLHAQGVIHRDIKSDSILLTHDGRVKLSDFGFCAQVSKEVPRRKSLVGTPYWMAPELISRLPYGPEVDIWSLGIMVIEMVDGEPPYFNEPPLKAMKMIRDNLPPRLKNLHKVSPSLKGFLDRLLVRDPAQRATAAELLKHPFLAKAGPPASIVPLMRQNRTR
B5: SF3B2 (protein, UniProt Q13435 1-895, looked up)
Splicing factor 3B subunit 2: MATEHPEPPKAELQLPPPPPPGHYGAWAAQELQAKLAEIGAPIQGNREELVERLQSYTRQTGIVLNRPVLRGEDGDKAAPPPMSAQLPGIPMPPPPLGLPPLQPPPPPPPPPPGLGLGFPMAHPPNLGPPPPLRVGEPVALSEEERLKLAQQQAALLMQQEERAKQQGDHSLKEHELLEQQKRAAVLLEQERQQEIAKMGTPVPRPPQDMGQIGVRTPLGPRVAAPVGPVGPTPTVLPMGAPVPRPRGPPPPPGDENREMDDPSVGPKIPQALEKILQLKESRQEEMNSQQEEEEMETDARSSLGQSASETEEDTVSVSKKEKNRKRRNRKKKKKPQRVRGVSSESSGDREKDSTRSRGSDSPAADVEIEYVTEEPEIYEPNFIFFKRIFEAFKLTDDVKKEKEKEPEKLDKLENSAAPKKKGFEEEHKDSDDDSSDDEQEKKPEAPKLSKKKLRRMNRFTVAELKQLVARPDVVEMHDVTAQDPKLLVHLKATRNSVPVPRHWCFKRKYLQGKRGIEKPPFELPDFIKRTGIQEMREALQEKEEQKTMKSKMREKVRPKMGKIDIDYQKLHDAFFKWQTKPKLTIHGDLYYEGKEFETRLKEKKPGDLSDELRISLGMPVGPNAHKVPPPWLIAMQRYGPPPSYPNLKIPGLNSPIPESCSFGYHAGGWGKPPVDETGKPLYGDVFGTNAAEFQTKTEEEEIDRTPWGELEPSDEESSEEEEEEESDEDKPDETGFITPADSGLITPGGFSSVPAGMETPELIELRKKKIEEAMDGSETPQLFTVLPEKRTATVGGAMMGSTHIYDMSTVMSRKGPAPELQGVEVALAPEELELDPMAMTQKYEEHVREQQAQVEKEDFSDMVAEHAAKQKQKKRKAQPQDSRGGSKKYKEFKF
B6: SNX4 (protein, UniProt O95219 1-450, looked up)
Sorting nexin-4: MEQAPPDPERQLQPAPLEPLGSPDAGLGAAVGKEAEGAGEESSGVDTMTHNNFWLKKIEISVSEAEKRTGRNAMNMQETYTAYLIETRSVEHTDGQSVLTDSLWRRYSEFELLRSYLLVYYPHIVVPPLPEKRAEFVWHKLSADNMDPDFVERRRIGLENFLLRIASHPILCRDKIFYLFLTQEGNWKETVNETGFQLKADSRLKALNATFRVKNPDKRFTDLKHYSDELQSVISHLLRVRARVADRLYGVYKVHGNYGRVFSEWSAIEKEMGDGLQSAGHHMDVYASSIDDILEDEEHYADQLKEYLFYAEALRAVCRKHELMQYDLEMAAQDLASKKQQCEELVTGTVRTFSLKGMTTKLFGQETPEQREARIKVLEEQINEGEQQLKSKNLEGREFVKNAWADIERFKEQKNRDLKEALISYAVMQISMCKKGIQVWTNAKECFSKM

What was measured:
[1] = target: T1, HCV ORFs (Gal4-DB fusions) (Hepatitis C virus genotype 1b, UniProt Q9WMX2); type: binding, HCV genotype 1b, isolate con1; conditions: human protein as prey
T1 construct: expressed in transfected cells; host or cells: Saccharomyces cerevisiae MAV203 (IMAP1) / AH109 (IMAP2)

[2] = test system: HCV ORFs (Gal4-DB fusions); type: binding, HCV genotype 1b, isolate con1; conditions: human protein listed by gene symbol; the value names the HCV protein it interacts with
HCV proteins = target: T2, HCV proteins (Hepatitis C virus genotype 1b, UniProt Q9WMX2); experiment: Validation by Y2H pairwise matrices; type: binding;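 note: yeast two-hybrid pairwise tests of interactions first found in Y2H screens of HCV bait proteins against human cDNA libraries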
T2 construct: expressed in transfected cells
Procedure: A comprehensive interactome map between HCV and cellular proteins was generated by Y2H screens. Twenty seven constructs encoding full-length HCV mature proteins or discrete domains were cloned using a recombination-based cloning system (10) (FIG. 6). Four independent screens were performed with each HCV bait protein, probing two distinct human cDNA libraries (Supplementary Methods). […] Two validation methods were used to assess the confidence of the IMAP Y2H dataset.

[3] = validation of interaction with HCV protein NS3
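Throughout, for IMAP Y2H IMAP1 (number of IST): yeast two-hybrid screens using HCV genotype 1b proteins fused to Gal4-DB as baits against prey cDNA libraries from human spleen and foetal brain, IMAP1 via transformation and IMAP2 via mating.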
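Throughout, for Interaction with viral protein: yeast two-hybrid screens using HCV genotype 1b proteins fused to Gal4-DB as baits against prey cDNA libraries from human spleen and foetal brain, IMAP1 via transformation and IMAP2 via mating.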

| Molecule | IMAP Y2H IMAP1 (number of IST) ([1]; HCV protein NS3 as bait) | Interaction with viral protein [2] | Y2H matrices (HCV proteins; [3]) | IMAP Y2H IMAP1 (number of IST) ([1]; HCV protein p7 as bait) | Y2H matrices (HCV proteins; interaction with HCV protein p7) | IMAP Y2H IMAP1 (number of IST) ([1]; HCV protein CORE as bait) | Y2H matrices (HCV proteins; validation of interaction with HCV protein CORE) |
| --- | --- | --- | --- | --- | --- | --- | --- |
| B1 | 1 | NS3 | + | – | – | – | – |
| B2 | 4 | NS3 | + | – | – | – | – |
| B3 | 5 | NS3 | + | 1 | + | – | – |
| B4 | – | CORE | – | – | – | 1 | + |
| B5 | 1 | NS3 | + | – | – | – | – |
| B6 | 1 | NS3 | + | – | – | – | – |
